In test [1] the target is VEGF165 (UniProt P15692). Kind of test: cell-based or functional assay.
Test [2] addresses VEGF165 (UniProt P15692). Kind of test: ELISA. The following applies: Fc fusion. (ELISA stands for enzyme-linked immunosorbent assay.)

For orientation: EC50 means the concentration at which the effect is half-maximal.

Chain of VEGF165 (P15692 other isoform, or with tags, fused parts or gaps): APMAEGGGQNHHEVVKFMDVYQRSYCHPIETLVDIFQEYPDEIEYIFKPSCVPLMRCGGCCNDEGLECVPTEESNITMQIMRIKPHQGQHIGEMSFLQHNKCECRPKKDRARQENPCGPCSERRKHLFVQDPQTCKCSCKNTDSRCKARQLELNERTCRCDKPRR

Turning to “VEGFR-Fc (aflibercept) (from UniProt P17948 129-230; P35968 225-327) (Fc fusion)”, the inhibition of VEGF165-stimulated HUVEC proliferation (IC50) in test [1] is 0.107 nM. On to “VEGFR-Fc (aflibercept) (from UniProt P17948 129-230; P35968 225-327)”, for which the concentration giving a half-maximal response (EC50) in test [2] was determined as 0.057 nM.

The record behind these values is US20200299389A1.
